The target of this experiment is M22 antibody (thyrotropin receptor autoantibody). Description: M22-blocking ELISA (KRONUS kit): fusion protein in 2-fold dilutions pre-incubated with peroxidase-M22, then added to the kit plate.

As for TSHR 21-282 D43A (N01) (Fc fusion), the IC50 (commonly the concentration needed to halve the response being measured) came to 3 µg/mL.

The record behind these values is US20210221869A1.
